Consider four molecules from patent EP3727588B1 (UNIVERSITA' DEGLI STUDI DI MILANO, dated 2019).

Assay [1] deals with T1, α-adaptin subunit of AP2 (rat) (rat, UniProt P58197).
T1 construct: Detected by Western blot as a read-out of the whole AP2 complex
The assay can be described thus: co-IP with anti-ADAM10, α-adaptin blot; rat acute hippocampal slices, 10 µM, 30 min; competitor ADAM10 (Fig. 1B).

Assay [2] deals with T1, α-adaptin subunit of AP2 (rat). The assay can be described thus: co-IP with anti-ADAM10; rat primary hippocampal neurons, 1 µM, 30 min; competitor ADAM10 (Fig. 1D).
Assay [3] deals with AP2 clathrin adaptor complex (in COS7 cells). The assay can be described thus: cell-based or functional assay.

T1 sequence (P58197 whole entry): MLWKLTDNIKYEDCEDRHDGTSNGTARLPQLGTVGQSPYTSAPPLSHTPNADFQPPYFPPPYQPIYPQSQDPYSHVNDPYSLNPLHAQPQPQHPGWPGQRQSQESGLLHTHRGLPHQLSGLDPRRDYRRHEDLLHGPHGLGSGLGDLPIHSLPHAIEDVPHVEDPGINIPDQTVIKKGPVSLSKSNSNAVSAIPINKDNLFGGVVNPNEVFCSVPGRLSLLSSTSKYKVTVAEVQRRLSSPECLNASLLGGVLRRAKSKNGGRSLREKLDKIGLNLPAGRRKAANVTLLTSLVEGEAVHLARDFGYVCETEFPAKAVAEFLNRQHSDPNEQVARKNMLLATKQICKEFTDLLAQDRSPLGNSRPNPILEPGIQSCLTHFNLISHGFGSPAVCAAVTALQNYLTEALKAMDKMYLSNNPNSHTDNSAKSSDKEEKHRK

On to YGRKKRRQRRRGGSGLPPRQRPRL [PEP2], for which the “PEP/inPEP ratio of α-adaptin co-immunoprecipitated with ADAM10 (OD)” value in assay [1] turned out to be 41.6%; in assay [2], 33.9%. Moreover, the “internalization index of TacADAM10-RAR (fluorescence-based antibody uptake, COS7 cells, 1 µM, 30 min)” value (shortened to “internalization index of TacADAM10-RAR”) in assay [3] is -10.9%.
As for YGRKKRRQRRRGGSGLPPEQEPRL [inPEP2], the “internalization index of TacADAM10-RAR” value in assay [3] was -1.84%.
As for YGRKKRRQRRRGGSGQPPEQEPRG [inPEP3], the “internalization index of TacADAM10-RAR” value in assay [3] was 1.3%.
Consider YGRKKRRQRRRGGSGQPPRQRPRG [PEP3], for which the “PEP/inPEP ratio of α-adaptin co-immunoprecipitated with ADAM10 (OD)” value in assay [1] came to 37.4%; in assay [2], 10.8%. The “internalization index of TacADAM10-RAR” value in assay [3] was -12.8%.
